Experimental data from publication PMC5942779, “Identification of a peptide inhibitor for the histone methyltransferase WHSC1” (PLoS ONE, 2018).
Square brackets hold non-standard residues; d marks the D form. Nle = CCCC[C@H](N)C(=O)O

Legend:
Test in all cases: cell-based or functional assay
G9a = G9a (UniProt Q96KQ7 1-1210)
SETDB1 = SETDB1 (UniProt Q15047 1-1291)
EZH1 = EZH1 (UniProt Q92800 1-747)
PRMT6 = PRMT6 (UniProt Q96LA8 1-375)
SMYD2 = SMYD2 (UniProt Q9NRG4 1-433)
EZH2 = EZH2 (UniProt Q15910 1-746)
EZH2, sequence (Q15910 whole entry): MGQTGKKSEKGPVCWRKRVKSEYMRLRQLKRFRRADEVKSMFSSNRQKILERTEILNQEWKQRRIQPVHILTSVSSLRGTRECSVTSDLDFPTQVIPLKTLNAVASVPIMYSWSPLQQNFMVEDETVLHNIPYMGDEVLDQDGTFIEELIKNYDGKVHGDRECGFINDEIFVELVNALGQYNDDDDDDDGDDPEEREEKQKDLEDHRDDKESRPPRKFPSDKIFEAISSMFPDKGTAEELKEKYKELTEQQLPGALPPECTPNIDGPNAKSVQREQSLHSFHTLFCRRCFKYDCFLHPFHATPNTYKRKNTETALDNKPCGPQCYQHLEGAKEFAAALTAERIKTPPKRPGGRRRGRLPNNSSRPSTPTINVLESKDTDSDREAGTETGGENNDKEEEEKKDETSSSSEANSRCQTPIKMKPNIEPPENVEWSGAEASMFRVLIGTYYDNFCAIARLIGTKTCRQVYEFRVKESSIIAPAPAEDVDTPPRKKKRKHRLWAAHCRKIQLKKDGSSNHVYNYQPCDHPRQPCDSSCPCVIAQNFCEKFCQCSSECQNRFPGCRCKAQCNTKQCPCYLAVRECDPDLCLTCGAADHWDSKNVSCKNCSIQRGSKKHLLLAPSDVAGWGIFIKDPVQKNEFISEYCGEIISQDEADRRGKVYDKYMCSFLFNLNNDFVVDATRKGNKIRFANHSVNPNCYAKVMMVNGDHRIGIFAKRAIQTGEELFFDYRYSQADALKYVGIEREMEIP

Measured: Biochemical IC50 (enzymatic inhibition, panel of HMT enzymes)

SMYD2, sequence (Q9NRG4 whole entry): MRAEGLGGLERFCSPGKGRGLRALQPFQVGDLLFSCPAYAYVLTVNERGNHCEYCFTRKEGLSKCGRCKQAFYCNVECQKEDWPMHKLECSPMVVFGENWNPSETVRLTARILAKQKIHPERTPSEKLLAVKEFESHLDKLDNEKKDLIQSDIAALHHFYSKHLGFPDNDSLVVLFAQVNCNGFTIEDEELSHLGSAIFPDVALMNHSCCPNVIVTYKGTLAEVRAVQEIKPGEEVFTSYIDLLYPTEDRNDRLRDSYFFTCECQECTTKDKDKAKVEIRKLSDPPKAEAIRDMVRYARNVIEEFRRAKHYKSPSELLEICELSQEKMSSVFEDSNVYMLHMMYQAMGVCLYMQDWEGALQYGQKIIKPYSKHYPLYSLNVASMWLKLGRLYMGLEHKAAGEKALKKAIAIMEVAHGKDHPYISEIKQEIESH
EZH1, sequence (Q92800 whole entry): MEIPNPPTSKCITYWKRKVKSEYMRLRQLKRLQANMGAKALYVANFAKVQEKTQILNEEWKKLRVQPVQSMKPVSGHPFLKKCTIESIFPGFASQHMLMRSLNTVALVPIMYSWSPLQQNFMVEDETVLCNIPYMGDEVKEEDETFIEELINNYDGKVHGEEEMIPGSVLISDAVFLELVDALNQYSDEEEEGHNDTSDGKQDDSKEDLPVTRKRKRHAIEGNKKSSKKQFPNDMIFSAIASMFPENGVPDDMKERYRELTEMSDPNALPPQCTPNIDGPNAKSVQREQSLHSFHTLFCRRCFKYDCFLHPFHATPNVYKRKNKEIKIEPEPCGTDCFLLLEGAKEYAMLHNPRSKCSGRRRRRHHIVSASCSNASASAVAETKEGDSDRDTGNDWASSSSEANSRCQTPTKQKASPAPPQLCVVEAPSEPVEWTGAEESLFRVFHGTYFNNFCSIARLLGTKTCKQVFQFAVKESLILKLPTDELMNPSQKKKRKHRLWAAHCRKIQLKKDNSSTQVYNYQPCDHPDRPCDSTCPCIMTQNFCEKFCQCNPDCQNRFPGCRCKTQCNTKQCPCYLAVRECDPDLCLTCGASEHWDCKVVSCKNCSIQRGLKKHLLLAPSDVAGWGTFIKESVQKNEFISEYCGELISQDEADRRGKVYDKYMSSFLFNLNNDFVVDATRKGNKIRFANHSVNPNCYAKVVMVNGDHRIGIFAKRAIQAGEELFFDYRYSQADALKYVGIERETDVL
PRMT6, sequence (Q96LA8 whole entry): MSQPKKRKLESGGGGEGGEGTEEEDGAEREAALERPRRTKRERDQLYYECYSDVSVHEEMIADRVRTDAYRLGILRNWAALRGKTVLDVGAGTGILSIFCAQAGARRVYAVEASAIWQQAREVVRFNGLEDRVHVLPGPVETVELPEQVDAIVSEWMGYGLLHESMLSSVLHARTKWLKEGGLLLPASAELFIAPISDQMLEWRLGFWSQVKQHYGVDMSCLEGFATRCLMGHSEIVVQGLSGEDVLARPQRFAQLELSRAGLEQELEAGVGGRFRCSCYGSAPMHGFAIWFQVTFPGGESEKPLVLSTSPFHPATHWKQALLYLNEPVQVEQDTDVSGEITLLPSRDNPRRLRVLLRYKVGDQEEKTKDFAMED
G9a, sequence (Q96KQ7 whole entry): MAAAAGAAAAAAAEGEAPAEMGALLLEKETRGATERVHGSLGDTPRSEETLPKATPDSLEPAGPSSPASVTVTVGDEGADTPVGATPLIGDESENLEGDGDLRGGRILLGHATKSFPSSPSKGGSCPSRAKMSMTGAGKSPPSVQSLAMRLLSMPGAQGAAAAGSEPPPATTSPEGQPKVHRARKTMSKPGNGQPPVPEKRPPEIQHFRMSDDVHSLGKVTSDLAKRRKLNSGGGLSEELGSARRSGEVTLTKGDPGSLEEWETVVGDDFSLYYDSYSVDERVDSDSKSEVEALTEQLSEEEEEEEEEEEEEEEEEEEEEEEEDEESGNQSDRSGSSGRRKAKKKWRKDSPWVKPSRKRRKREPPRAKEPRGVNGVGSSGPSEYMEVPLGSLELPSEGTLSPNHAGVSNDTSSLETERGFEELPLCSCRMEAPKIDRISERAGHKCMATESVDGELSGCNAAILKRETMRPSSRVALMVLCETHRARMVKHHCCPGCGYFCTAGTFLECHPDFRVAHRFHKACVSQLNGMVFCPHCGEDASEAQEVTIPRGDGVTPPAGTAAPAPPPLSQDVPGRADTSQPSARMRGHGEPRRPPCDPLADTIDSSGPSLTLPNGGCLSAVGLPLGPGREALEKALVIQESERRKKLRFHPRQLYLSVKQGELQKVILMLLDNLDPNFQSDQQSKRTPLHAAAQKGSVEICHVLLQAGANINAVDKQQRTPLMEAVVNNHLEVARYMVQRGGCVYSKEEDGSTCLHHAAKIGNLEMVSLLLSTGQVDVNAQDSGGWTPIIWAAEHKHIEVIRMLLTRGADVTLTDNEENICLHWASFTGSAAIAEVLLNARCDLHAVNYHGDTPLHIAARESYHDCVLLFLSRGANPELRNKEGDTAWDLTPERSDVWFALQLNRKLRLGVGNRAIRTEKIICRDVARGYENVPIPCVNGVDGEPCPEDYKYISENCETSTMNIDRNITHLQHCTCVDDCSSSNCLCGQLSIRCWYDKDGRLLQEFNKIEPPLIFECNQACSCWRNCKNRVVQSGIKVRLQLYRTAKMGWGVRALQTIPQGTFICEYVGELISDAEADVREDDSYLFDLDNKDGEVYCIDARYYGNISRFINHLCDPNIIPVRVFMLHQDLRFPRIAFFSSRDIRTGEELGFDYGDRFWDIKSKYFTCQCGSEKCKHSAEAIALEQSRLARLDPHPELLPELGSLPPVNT

Ac-GV[Nle]RI-NH2 [PTD2]
> 200 µM: G9a | SETDB1 | EZH1 | PRMT6 | SMYD2 | EZH2
